From paper PMC11897886 (Nucleic Acids Research, 2024) come the findings set out here.

Assay [1] deals with FITC-labeled Dcp2-UBM2 peptide (aa 694-718) (S. cerevisiae) (UniProt P53550). Kind of assay: fluorescence polarisation. In general terms: In fluorescence polarisation assays a small probe gives low polarisation when free and higher when bound to something large.
Assay [2] has as its target FITC-labeled Dcp2-UBM1 peptide (aa 456-479) (S. cerevisiae) (UniProt P53550). Nature of the assay: fluorescence polarisation.
For assay [3], the target named is CBP-Upf1-CH-His (S. cerevisiae). Nature of the assay: SDS-PAGE band identified by Western blotting and mass spectrometry.
Assay [4] concerns the target T1, CBP-Upf1-HD (S. cerevisiae, UniProt P30771 221-851).
T1 sequence: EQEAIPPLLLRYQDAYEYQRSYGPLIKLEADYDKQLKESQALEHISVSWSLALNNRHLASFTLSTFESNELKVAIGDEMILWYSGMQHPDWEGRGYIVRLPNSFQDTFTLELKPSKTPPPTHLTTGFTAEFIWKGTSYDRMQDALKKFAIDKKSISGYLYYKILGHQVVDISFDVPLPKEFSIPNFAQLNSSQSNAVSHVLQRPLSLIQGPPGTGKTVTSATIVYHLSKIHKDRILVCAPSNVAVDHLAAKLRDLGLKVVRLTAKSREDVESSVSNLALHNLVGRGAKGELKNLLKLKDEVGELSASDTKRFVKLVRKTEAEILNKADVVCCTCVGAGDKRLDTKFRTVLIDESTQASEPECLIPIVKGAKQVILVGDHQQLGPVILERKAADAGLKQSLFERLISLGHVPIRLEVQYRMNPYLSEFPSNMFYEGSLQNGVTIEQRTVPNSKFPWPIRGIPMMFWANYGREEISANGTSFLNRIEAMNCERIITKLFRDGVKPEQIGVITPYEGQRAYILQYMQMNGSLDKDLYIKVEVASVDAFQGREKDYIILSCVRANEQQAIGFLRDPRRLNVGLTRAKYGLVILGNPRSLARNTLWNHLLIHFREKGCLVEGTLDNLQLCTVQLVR
Kind of assay: pull-down.

Assay [5] has as its target T2, CBP-Upf1-FL (S.c. Upf1 full-length) (S. cerevisiae, UniProt P30771 1-971).
T2 sequence: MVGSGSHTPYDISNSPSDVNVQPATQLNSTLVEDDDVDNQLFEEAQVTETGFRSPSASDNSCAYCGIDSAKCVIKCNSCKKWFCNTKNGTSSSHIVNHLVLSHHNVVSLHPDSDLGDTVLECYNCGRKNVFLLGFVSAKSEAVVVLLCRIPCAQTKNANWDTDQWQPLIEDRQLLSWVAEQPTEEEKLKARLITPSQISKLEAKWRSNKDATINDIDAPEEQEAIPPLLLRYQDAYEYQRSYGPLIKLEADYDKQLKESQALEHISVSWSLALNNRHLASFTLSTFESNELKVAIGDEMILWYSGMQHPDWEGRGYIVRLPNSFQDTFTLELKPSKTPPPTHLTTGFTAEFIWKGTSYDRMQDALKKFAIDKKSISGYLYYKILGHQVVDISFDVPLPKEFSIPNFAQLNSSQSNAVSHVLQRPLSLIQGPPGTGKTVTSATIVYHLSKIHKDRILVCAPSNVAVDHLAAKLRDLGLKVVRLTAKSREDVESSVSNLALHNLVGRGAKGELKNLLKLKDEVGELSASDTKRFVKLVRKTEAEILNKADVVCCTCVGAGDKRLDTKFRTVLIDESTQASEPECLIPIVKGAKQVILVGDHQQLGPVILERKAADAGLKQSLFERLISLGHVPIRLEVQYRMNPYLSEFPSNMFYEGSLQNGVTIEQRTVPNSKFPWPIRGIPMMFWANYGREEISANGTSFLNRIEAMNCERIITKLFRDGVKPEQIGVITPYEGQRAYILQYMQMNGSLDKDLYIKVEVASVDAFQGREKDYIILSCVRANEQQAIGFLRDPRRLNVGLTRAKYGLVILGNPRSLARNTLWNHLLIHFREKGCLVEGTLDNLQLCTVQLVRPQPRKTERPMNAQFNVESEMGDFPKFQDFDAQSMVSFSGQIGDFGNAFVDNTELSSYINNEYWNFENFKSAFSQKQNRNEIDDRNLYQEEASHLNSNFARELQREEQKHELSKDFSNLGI
Kind of assay: pull-down.

In assay [6] the target is T3, CBP-Upf1-HD-Ct (S. cerevisiae, UniProt P30771 221-971).
T3 sequence: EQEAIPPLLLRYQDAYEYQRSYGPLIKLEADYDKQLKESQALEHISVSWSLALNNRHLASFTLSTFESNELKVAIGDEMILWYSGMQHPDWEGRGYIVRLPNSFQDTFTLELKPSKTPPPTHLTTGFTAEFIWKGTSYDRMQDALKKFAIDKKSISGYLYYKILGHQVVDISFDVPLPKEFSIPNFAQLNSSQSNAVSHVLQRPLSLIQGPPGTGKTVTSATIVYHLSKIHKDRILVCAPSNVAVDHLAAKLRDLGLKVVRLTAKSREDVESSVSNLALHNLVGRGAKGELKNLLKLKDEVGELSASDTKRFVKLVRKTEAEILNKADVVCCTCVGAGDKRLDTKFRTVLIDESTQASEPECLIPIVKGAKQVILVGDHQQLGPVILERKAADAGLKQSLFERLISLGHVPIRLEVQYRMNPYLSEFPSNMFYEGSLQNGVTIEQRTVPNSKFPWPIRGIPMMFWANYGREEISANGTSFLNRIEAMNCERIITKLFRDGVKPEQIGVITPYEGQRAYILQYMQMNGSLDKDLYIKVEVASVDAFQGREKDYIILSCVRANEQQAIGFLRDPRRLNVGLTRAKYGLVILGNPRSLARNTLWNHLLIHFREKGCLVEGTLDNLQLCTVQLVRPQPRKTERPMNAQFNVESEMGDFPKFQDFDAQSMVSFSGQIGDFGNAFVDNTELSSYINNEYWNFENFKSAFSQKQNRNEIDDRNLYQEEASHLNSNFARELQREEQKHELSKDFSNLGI
Nature of the assay: pull-down.

Assay [7] addresses T4, CBP-Upf1-CH-HD (S. cerevisiae, UniProt P30771 54-851).
T4 sequence: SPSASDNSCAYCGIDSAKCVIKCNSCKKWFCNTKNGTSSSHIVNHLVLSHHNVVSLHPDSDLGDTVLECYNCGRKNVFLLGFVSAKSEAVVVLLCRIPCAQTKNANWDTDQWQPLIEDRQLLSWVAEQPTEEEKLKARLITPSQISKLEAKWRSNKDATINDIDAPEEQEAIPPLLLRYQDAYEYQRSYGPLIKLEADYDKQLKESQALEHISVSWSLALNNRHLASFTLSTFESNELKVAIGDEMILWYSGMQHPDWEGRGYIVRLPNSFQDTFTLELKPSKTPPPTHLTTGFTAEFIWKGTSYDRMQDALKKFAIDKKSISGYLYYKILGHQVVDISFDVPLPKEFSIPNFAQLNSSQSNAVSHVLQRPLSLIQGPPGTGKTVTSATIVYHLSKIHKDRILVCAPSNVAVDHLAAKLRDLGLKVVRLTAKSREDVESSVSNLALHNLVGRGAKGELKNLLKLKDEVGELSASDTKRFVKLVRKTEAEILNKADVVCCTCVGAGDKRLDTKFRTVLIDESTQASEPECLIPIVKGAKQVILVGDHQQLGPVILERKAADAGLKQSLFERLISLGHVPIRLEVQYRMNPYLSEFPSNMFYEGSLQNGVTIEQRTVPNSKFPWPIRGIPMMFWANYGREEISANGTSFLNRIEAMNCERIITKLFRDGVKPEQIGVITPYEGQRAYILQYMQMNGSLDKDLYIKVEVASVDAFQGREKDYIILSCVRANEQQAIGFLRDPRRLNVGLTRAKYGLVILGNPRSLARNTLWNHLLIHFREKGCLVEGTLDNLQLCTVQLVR
Nature of the assay: pull-down.

Assay [8] addresses T5, GST-Ebs1 (aa 1-591) (S. cerevisiae, UniProt Q03466 1-591).
T5 sequence: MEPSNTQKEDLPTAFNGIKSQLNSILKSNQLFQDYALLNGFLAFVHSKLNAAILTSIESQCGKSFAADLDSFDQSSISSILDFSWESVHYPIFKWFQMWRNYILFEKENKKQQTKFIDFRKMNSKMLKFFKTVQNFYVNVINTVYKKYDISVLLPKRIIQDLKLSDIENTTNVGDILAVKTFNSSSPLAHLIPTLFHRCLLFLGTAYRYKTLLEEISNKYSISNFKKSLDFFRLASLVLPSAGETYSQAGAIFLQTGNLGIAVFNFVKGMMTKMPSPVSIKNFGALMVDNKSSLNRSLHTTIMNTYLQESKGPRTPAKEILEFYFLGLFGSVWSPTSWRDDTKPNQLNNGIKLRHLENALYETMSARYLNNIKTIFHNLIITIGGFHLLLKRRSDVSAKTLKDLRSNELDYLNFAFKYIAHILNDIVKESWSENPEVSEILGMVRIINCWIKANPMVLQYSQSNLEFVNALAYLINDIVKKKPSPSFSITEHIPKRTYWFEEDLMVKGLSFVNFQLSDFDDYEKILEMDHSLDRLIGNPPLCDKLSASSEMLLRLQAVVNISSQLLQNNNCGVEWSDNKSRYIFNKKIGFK
Kind of assay: pull-down.

Chain of FITC-labeled Dcp2-UBM2 peptide (aa 694-718) (S. cerevisiae) (P53550 694-718): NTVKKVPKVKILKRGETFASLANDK
Chain of FITC-labeled Dcp2-UBM1 peptide (aa 456-479) (S. cerevisiae) (P53550 456-479): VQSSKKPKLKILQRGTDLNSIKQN

As for CBP-Upf1-CH-His (domain or fragment), the figures for the Kd in assay [1] and in assay [2] were 25.1 µM and 60.1 µM, respectively. In assay [3], the stoichiometry N (commonly the number of molecules, sites or subunits per partner or assembly) came to 2.

B1: GST-Dcp1/Dcp2-S heterodimer (complex)
chain 1: MTGAATAAENSATQLEFYRKALNFNVIGRYDPKIKQLLFHTPHASLYKWDFKKDEWNKLEYQGVLAIYLRDVSQNTNLLPVSPQEVDIFDSQNGSNNIQVNNGSDNSNRNSSGNGNSYKSNDSLTYNCGKTLSGKDIYNYGLIILNRINPDNFSMGIVPNSVVNKRKVFNAEEDTLNPLECMGVEVKDELVIIKNLKHEVYGIWIHTVSDRQNIYELIKYLLENEPKDSFA
chain 2: MSLPLRHALENVTSVDRILEDLLVRFIINCPNEDLSSVERELFHFEEASWFYTDFIKLMNPTLPSLKIKSFAQLIIKLCPLVWKWDIRVDEALQQFSKYKKSIPVRGAAIFNENLSKILLVQGTESDSWSFPRGKISKDENDIDCCIREVKEEIGFDLTDYIDDNQFIERNIQGKNYKIFLISGVSEVFNFKPQVRNEIDKIEWFDFKKISKTMYKSNIKYYLINSMMRPLSMWLRHQRQIKNEDQLKSYAEEQLKLLLGITKEEQIDPGRELLNMLHTAVQANSNNNAVSNGQVPSSQELQHLKEQSGEHNQQK
For the molecule B1, the binding result in assay [4], in assay [5], in assay [6] and in assay [7] was “binds” throughout.

B2: CBP-Upf1-Ct (domain or fragment)
chain: PQPRKTERPMNAQFNVESEMGDFPKFQDFDAQSMVSFSGQIGDFGNAFVDNTELSSYINNEYWNFENFKSAFSQKQNRNEIDDRNLYQEEASHLNSNFARELQREEQKHELSKDFSNLGI
As for B2, the binding result in assay [8] is “binds”.

B3: TS-Nmd4-His (full-length Nmd4, aa 1-218) (natural protein)
chain: MTQYNFIIDASAFEKGLGNIKRWCSDCTEAVTLNFYIPTFTLNELDFLQQRRKSFAARESLKFIDRLDDSKFANLKVFIEFPEVLDIILWSDVMEHNDSSGKINIAKLPKRLKNLLKSCIYKCYLEGNEGLHWFLISEDPQIREMAMQCNIPSCSIVDVDSILSKDMNDKSFRESEKFNNMMLKNGTKEESENGREIIRTNFNKTVYASRGTGELWSP
Regarding B3, the binding result in assay [4], in assay [5], in assay [6] and in assay [7] was “binds” in each case.
